Laboratory results as given in patent US20260022144A1, “ANALGESIC POLYPEPTIDE” (Shanghai Puyou Biomedical Co., Ltd., priority 2022, published 2026).

How the values were obtained:
[1] = system: chemotherapy-induced peripheral neuropathy model induced by cisplatin in mice; experiment: Cancer pain associated with CIPN model induced by cisplatin in mice, mechanical allodynia test; type: in vivo, mouse; conditions: C57BL/6 mice; for pain thresholds (50% PWT) of treatment groups vs model group, preventive effect: 15 mg/kg i.p. qd or bid in parallel with cisplatin
Method: The experiments in this Example were divided into two parts. In the first part (Part I), the administration of SEQ ID NO: 29 was performed in parallel with modeling to explore the preventive effect of the polypeptide of the present disclosure on cancer pain associated with CIPN, in particular CIPN induced by cisplatin. In the second part (Part II), after elution of SEQ ID NO: 29 from the mice's bodies, mechanical allodynia tests were performed on the mice to confirm that the animals still had the cancer pain associated with CIPN, and to explore the therapeutic effect of the polypeptide of the present disclosure on cancer pain associated with CIPN after modeling.
44 male C57BL/6 mice weighting 20 to 25 g were randomly divided into 4 groups, with 8 mice in the control group (Group 1, administered with vehicle (normal saline)), 12 mice in the model group (Group 2, administered with vehicle (normal saline) and cisplatin (2.3 mg/kg, i.p., qd)), 12 mice in the treatment group (qd) (Group 3, administered with SEQ ID NO: 29 (15 mg/kg, i.p., qd) and cisplatin (2.3 mg/kg, i.p., qd)) and 12 mice in the treatment group (bid) (Group 4, administered with SEQ ID NO: 29 (15 mg/kg, i.p., bid) and cisplatin (2.3 mg/kg, i.p., qd)).
Administration of SEQ ID NO: 29 was performed on scheduled dates. Briefly, SEQ ID NO: 29 was administered qd or bid by intraperitoneal injection on each day from Day 1 to Day 11, followed by a washing-out period ranging from Day 12 to Day 23. Afterwards, the administration of SEQ ID NO: 29 was resumed on the basis of the same regimen as above, lasting from Day 24 to Day 30.
The mice were subjected to mechanical allodynia tests 0 h before administration and 2 h after the first administration of the test articles (normal saline or SEQ ID NO: 29) according to the method as recited in Example 1 on Day 6, Day 10, Day 23 and Day 30, respectively.

[2] = system: eye pain (ocular neuropathic pain) model induced by benzalkonium chloride in mice; experiment: Eye pain model induced by benzalkonium chloride in mice, scratching behavior test; type: in vivo, mouse; conditions: eye drops TID, 30 μg/ml, 10 μL (0.3 μg/eye/each time), after 2 days of treatment, 2M NaCl challenge, vs model group
Method: C57BL/6JNifdc mice were used in the experiment. Briefly, each of the mice was fixed with one hand, with one eye prop opened with the other hand (and fixed with another lab technician). The modeling drug, i.e., 0.1% benzalkonium chloride was dripped into one eye (twice a day (9:00, 17:00), 10 μL each time) and maintained for 30 seconds. The operation was repeated for six days.
In order to evaluate the pathological changes at the front of the mice's eyes, slit lamp photos were taken on the third day since the beginning of modeling. According to the photographic results, the mice's eyes were scored from three viewing angles, including corneal opacity (0: clear, 1: visible opacity, 2: difficult to find, 3: pupil invisible), conjunctival edema (0: absent, 1: slight edema, 2: edema, 3: severe edema) and congestion (0: absent, 1: slight congestion, 2: congestion, 3: severe congestion, 4: hemorrhage), to access and evaluate the damages at the front of the mice's eyes. The mice were then randomized into groups. […]
Scratching behavior test: The eyes were administered for two consecutive days. […] After acting for 5 seconds, the mice were released back into the cage, and the numbers of wipes over the eyes within 30 seconds were counted.

[3] = system: bone pain model induced by Walker 256 breast cancer cells in rats; experiment: Bone pain model induced by Walker 256 breast cancer cells in rats, mechanical allodynia test; type: in vivo, rat; conditions: Wistar rats; for pain thresholds (50% PWT) of treatment group vs model group: 60 mg/kg i.v. once a day
Method: 28 female Wistar rats in total were randomly divided into 3 groups based on body weights, with 8 rats in the Sham group (Group 1, administered with vehicle (normal saline)), 10 rats in the model group (Group 2, administered with vehicle (normal saline)) and 10 rats in the treatment group (Group 3, administered with 60 mg SEQ ID NO: 29/kg).
A summary of the method for inducing bone pain model in rats by means of intratibial injection of a suspension of Walker 256 breast cancer cells is provided hereinafter. Briefly, the rats were anesthetized, then 4 μL of a suspension of Walker 256 cancer cells (containing about 4× 10^5 cells) was injected into the tibia cavity of the right hind limb of the rats (day 0). The rats in Sham group were injected with an equal volume of normal saline.
After injection of cancer cells (day 0), administration was started on the next day (day 1) and performed once a day for a consecutive period of 14 days (day 1, day 2 . . , day 14, respectively).
The rats were subjected to mechanical allodynia tests 1 h before and after administration of the test articles according to the method as recited in Example 1 on day 7 (D7) and day 14 (D14), respectively.

B1: SEQ ID NO: 29: exemplary polypeptide of the present disclosure; artificial polypeptide of formula (I) X-Y (protein)
chain: SEKKQPVDLGLLEEDDEFEEFPAEDWAGLDEDEDAHVWEDNWDDDNVEDDFSNQLRATVLLMILVAETPYGAYVLHQKGRMASAFLAA
[1]; 15 mg/kg i.p. qd or bid Day 24 to Day 30, Day 30 vs Day 23
  pain thresholds (50% PWT) of treatment groups, therapeutic effect: significantly increased
[1]; Day 6
  pain thresholds (50% PWT) of treatment groups vs model group, preventive effect: significantly higher than those of the mice from the model group
[1]; Day 10
  pain thresholds (50% PWT) of treatment groups vs model group, preventive effect: significantly higher than those of the mice from the model group
[1]; 15 mg/kg i.p., qd vs bid
  levels of pain thresholds under different dosing frequency: dose-related
[2]
  numbers of wipes over the eyes within 30 seconds: significantly decreased numbers of wiping over the eyes (P<0.01)
[3]; 60 mg/kg i.v. once a day for 14 days
  course of pain thresholds (50% PWT) of treatment group vs model group: increased gradually with the increase of the number of administrations
[3]; 1 h after administration on day 7 (D7)
  pain thresholds (50% PWT) of treatment group vs model group: increased significantly
[3]; 1 h after administration on day 14 (D14)
  pain thresholds (50% PWT) of treatment group vs model group: increased significantly
[3]; before administration on day 7 (D7)
  pain thresholds (50% PWT) of treatment group vs model group: no significant difference
[3]; before administration on day 14 (D14)
  pain thresholds (50% PWT) of treatment group vs model group: increased significantly
